Measured values taken from PMC4224142.

Molecular target: JunD, endogenous in LNCaP cells (human (endogenous in LNCaP)) (UniProt P17535)
Assay: proximity ligation

Chain of UniProt P17535 (P17535 whole entry): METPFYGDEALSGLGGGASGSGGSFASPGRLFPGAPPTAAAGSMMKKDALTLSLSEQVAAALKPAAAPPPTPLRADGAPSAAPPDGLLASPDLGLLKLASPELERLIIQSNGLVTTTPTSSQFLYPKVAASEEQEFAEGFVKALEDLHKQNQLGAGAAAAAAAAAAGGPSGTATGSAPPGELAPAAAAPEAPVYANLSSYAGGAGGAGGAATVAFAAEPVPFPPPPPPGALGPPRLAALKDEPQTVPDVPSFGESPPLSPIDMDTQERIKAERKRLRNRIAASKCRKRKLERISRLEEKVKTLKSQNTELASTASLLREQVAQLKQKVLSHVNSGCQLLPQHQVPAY

Q: With “Androgen receptor (AR), endogenous in LNCaP cells (from UniProt P10275 1-920)” as the substance, how does the fold induction of PLA spots per cell by androgen (against cells without R1881) read?
A: Its fold induction of PLA spots per cell by androgen (against cells without R1881) is 3 fold.
